Results reported in paper PMC12757075 (2026).

Molecular target: actin filament barbed end (Oryctolagus cuniculus, UniProt P68135)
Experiment: pyrene-actin barbed-end elongation kinetic assay

Kd: ~1260 nM
B1: vinculin V1ab4 (protein)
chain: MPVFHTRTIESILEPVAQQISHLVIMHKEGEVHGKAIPDLTAPVAAVQAAVSNLVRVGKETVQTTEDQILKRDMPPAFIKVENACTKLVQAAQMLQSDPYSVPARDYLIHGSEGILSGTSDLLLTFDEAEVRKIIRVCKGILEYLTVAEVVETMEDLVTYTKNLGPGMTKMAKMIDERQQELTHQEHRVMLVNSMNTVKELLPVLISAMKIFVTTKNSKNQGIEEALKNRNFTVEKMSAEINEIIRVLQLTSWDEDAWASKDTEAMKRALASIDSKLNQAKGWLRDPSASPGDAGEQAIRQILDEAGKVGELCAGKERREILGTCKMLGQMTDQVADLRARGQGSSPVAMQKAQQVSQGLDVLTAKVENAARKLEAMTNSKQSIAKKIDAAQNWLADPNGGPEGEEQIRGALAEARKIAELCDDPKERDDILRSLGEISALTSKLADLRRQGKGDSPEARALAKQVATALQNLQTKTNRAVANSRPAKAAVHLEGKIEQAQRWIDNPTVDDRGVGQAAIRGLVAEGHRLANVMMGPYRQDLLAKCDRVDQLTAQLADLAARGEGESPQARALASQLQDSLKDLKARMQEAMTQEVSDVFSDTTTPIKLLAVAATAPPDAPNREEVFDERAANFENHSGKLGATAEKAAAVGTANKSTVEGIQASVKTARELTPQVVSAARILLRNPGNQAAYEHFETMKNQWIDNVEKMTGLVDEAIDTKSLLDASEEAIKKDLDKCKVAMANIQPQMLVAGATSIARRANRILLVAKREVEISKDPKFREAVKAASDELSKTISPMVMDAKAVAGNISDPGLQKSFLDSGYRILGAVAKVREAFQPQEPDFPPPPPDLEQLRLTDELAPPKPPLPEGEVPPPRPPPPEEKDEEFPEQKAGEVINQPMMMAARQLHDEARKWSSKPGIPAAEVGIGVVAEADAADAAGFPVPPDMEDDYEPELLLMPSNQPVNQPILAAAQSLHREATKWSSKGNDIIAAAKRMALLMAEMSRLVRGGSGTKRALIQCAKDIAKASDEVTRLAKEVAKQCTDKRIRTNLLQVCERIPTISTQLKILSTVKATMLGRTNISDEESEQATEMLVHNAQNLMQSVKETVREAEAASIKIRTDAGFTLRWVRKTPWYQ
